Values of other authors in article PMC6440808.
Where two headings read alike, the source gives them in different places.

How the values were obtained:
C4b (Homo sapiens) [1] = molecular target: C4b (Homo sapiens) (UniProt P0C0L4)
C4b (Homo sapiens) [2] = molecular target: C4b (Homo sapiens) (UniProt P0C0L4); remark: listed apart in the source

Sequence of UniProt P0C0L4 (P0C0L4 20-1744, chain 1 of 2): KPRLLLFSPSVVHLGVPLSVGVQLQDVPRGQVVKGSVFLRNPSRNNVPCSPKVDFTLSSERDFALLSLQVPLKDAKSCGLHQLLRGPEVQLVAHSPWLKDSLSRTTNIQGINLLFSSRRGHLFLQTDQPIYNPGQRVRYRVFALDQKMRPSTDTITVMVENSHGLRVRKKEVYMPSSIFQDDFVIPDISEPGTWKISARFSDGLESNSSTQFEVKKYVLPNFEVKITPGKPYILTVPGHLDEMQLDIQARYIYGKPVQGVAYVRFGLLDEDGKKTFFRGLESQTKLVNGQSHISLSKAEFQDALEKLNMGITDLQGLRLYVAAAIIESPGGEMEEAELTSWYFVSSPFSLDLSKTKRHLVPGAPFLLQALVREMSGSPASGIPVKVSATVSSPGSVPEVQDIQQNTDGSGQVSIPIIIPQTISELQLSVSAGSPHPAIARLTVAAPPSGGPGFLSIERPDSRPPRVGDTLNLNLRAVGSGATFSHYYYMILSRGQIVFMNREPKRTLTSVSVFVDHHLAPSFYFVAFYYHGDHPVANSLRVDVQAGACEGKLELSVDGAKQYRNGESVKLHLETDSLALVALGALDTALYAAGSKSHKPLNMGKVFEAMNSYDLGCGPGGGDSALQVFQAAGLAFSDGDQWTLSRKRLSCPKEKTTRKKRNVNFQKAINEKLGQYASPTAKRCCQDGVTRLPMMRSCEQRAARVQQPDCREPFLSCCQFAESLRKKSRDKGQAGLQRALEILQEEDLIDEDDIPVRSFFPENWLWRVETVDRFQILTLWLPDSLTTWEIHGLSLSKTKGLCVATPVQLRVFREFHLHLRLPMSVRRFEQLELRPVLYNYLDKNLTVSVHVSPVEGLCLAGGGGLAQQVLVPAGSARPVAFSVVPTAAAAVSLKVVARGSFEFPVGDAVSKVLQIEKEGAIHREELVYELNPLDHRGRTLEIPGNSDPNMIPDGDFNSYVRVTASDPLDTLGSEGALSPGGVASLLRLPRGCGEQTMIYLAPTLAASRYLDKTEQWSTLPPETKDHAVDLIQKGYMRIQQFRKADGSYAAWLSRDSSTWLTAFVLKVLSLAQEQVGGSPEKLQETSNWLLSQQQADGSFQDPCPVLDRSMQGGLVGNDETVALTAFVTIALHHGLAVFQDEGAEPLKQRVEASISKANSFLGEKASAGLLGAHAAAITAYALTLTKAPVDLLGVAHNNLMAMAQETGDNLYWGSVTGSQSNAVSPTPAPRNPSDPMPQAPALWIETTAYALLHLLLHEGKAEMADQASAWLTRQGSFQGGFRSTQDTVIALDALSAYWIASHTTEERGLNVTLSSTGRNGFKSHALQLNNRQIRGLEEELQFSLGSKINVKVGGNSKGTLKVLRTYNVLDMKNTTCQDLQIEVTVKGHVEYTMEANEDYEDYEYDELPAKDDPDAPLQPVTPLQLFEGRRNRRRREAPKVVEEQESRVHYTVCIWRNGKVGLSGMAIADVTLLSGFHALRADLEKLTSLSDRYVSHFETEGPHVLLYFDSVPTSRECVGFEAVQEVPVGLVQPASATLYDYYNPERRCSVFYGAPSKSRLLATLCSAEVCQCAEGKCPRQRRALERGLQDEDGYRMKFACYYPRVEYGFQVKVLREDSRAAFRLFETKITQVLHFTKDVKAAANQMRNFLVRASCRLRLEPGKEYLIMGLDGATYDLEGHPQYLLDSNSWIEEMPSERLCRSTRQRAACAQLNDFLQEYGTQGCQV
Sequence of UniProt P0C0L4 (P0C0L5 20-1744, chain 2 of 2, further chain): as the sequence (P0C0L4 20-1744, chain 1 of 2) above, with A888T, D1054G, P1101L, C1102S, L1105I, D1106H, N1157S, V1188A, L1191R, S1267A counted along it

In the case of Eap34 domains 3-4 (from UniProt Q99QS1), the Kd (C4b (Homo sapiens) [1]) is given as 0.525 µM.

In the case of “Eap domain 3 or 4 (individual) domain 3 / domain 4 (from UniProt Q2FWW1)”, the Kd (C4b (Homo sapiens) [2]) is listed as 40 µM.
